Results as given in patent US20220112276A1 (Janssen / Centocor, published 2022).

T1: mouse pIgR extracellular domain (ECD) (mouse, UniProt O70570 19-645)
T1 construct: Bought from R&D Systems (Cat 2800-PG-050); also called mpIgR ECD
T1 sequence: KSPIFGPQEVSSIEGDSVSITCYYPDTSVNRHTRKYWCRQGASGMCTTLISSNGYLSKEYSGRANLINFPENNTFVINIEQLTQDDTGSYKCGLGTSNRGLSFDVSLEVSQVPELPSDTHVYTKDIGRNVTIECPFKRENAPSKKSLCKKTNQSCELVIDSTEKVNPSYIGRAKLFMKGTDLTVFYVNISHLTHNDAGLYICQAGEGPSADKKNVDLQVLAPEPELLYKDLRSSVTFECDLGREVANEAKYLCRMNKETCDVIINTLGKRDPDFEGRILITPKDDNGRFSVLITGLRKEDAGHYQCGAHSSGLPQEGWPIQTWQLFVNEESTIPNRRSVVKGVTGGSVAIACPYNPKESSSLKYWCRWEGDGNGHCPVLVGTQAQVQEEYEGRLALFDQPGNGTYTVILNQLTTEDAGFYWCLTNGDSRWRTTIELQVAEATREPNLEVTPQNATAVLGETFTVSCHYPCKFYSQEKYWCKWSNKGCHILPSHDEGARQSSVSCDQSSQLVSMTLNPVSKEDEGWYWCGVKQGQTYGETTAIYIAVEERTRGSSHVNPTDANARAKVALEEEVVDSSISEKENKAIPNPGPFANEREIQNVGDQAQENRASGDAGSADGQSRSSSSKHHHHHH

T2: rat pIgR extracellular domain (rat, UniProt P15083 19-643)
T2 construct: extracellular domain
T2 sequence (looked up): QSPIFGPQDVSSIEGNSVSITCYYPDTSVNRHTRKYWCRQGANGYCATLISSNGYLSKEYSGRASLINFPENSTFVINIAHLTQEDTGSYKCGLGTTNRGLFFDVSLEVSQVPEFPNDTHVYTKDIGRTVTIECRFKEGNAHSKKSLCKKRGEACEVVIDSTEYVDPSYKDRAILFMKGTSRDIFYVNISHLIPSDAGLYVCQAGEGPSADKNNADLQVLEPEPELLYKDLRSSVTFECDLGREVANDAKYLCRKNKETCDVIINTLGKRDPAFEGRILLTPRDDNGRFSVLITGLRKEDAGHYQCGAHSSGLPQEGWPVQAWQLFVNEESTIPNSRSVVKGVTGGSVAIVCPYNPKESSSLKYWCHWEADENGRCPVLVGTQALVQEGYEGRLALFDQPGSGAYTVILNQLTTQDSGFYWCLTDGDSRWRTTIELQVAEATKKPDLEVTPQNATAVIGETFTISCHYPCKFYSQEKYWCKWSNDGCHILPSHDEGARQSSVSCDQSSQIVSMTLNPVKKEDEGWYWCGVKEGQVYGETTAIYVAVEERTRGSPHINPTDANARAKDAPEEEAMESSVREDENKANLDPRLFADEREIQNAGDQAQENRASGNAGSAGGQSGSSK


What was measured:
Test in all cases: SPR, VHH captured by anti-Fc, ECD analyte
[1] = target: T3, human pIgR extracellular domain (ECD) (human, UniProt P01833 19-638)
T3 construct: Bought from R&D Systems (Cat 2717-PG-050); also called hpIgR ECD
T3 sequence (P01833 other isoform, or with tags, fused parts or gaps): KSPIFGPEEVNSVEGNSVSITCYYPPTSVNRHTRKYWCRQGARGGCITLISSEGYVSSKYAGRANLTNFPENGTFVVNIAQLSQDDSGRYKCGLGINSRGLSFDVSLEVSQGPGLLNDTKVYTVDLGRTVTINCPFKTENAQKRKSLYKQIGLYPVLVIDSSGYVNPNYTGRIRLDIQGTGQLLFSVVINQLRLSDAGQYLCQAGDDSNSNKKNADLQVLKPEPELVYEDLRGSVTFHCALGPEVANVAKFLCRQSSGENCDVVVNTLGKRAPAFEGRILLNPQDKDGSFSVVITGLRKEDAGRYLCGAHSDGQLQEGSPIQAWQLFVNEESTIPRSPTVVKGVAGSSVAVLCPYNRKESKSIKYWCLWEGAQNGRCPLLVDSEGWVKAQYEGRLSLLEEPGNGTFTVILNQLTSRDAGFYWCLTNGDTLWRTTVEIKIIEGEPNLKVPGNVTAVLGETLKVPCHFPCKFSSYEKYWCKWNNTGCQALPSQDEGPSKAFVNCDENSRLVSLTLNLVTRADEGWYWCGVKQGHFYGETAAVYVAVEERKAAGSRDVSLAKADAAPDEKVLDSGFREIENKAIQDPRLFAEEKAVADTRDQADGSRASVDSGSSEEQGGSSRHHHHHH
How it was run: (§1)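 Anti-human Fc surface captured VHH at 0.5 ug/ml (~200-300 RU); running buffer HBSP with 100 ug/ml BSA, 30 μL/min. Single-cycle kinetics with ECD injected low to high from 30 nM in 3-fold dilutions, dissociation 30 min. Double-referenced data globally fit to 1:1 Langmuir model for kon, koff, KD.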

[2] = target: T1, mouse pIgR extracellular domain (ECD)
How it was run: as §1

[3] = target: T4, cynomolgus monkey pIgR extracellular domain (cynomolgus monkey, UniProt A0A2K5WMU9 19-638)
T4 construct: extracellular domain
T4 sequence (A0A2K5WMU9 entry or part of it): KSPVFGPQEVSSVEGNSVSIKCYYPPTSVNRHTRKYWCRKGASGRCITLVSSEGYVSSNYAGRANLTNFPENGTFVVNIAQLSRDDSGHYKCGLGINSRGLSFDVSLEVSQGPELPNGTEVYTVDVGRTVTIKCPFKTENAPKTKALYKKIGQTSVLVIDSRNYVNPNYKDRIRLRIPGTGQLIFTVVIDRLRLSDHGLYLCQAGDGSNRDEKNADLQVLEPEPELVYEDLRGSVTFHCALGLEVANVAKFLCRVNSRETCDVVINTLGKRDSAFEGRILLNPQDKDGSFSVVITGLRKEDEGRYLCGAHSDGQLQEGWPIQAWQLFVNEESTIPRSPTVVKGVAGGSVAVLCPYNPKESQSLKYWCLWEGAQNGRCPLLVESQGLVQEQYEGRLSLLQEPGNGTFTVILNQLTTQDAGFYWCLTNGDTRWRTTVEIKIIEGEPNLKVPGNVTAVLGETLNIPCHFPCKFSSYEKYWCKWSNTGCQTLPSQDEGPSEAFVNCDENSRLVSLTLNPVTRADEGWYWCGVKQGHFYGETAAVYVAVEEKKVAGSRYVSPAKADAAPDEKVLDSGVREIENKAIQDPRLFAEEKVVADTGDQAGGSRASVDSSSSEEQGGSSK
How it was run: as §1

[4] = target: T2, rat pIgR extracellular domain
How it was run: as §1

Row | Kd [1] [nM] | Kd [2] [nM] | Kd [3] [nM] | Kd [4] [nM] | Binder
1 | 9.44 | 5.67 | 4.14 | 3.02 | 01C08R2L VHH Mono-Fc (Fc fusion) EVQLVESGGGLVQAGDSLRLSCAASGRTFTTYGVGWFRQAPGKEREFVTTITWSGSTNYKYYADSVKGRFTISRDNAKNTVYLQMNSLKPDDTAVYYCAASTVLTDPRVPTEYDYWGQGTQVTVSSSPAPELLGGPSVFLFPPKPKDTLMISRTPEVTCVVVDVSHEDPEVKFNWYVDGVEVHNAKTKPREEQYNSTYRVVSVLTVLHQDWLNGKEYKCKVSNKALPAPIEKTISKAKGQPREPQVYTKPPSREEMTKNQVSLSCLVKGFYPSDIAVEWESNGQPENNYKTTVPVLDSDGSFRLASYLTVDKSRWQQGNVFSCSVMHEALHNHYTQKSLSLSPGK
2 | 8.38 | 5.6 | 5.42 | 2.27 | 01G08R3LS VHH Mono-Fc (Fc fusion) QVQLVESGGGLVQAGDSLRLSCAASGRTFTTYGMGWFRQGPGKEREFVATITWSGSTNYKYYTDSVKGRFTISRDNAKNTVYLQMNSLKPEDTAVYYCAASTVLTDPRRLNEYDYWGQGTQVTVSSSPAPELLGGPSVFLFPPKPKDTLMISRTPEVTCVVVDVSHEDPEVKFNWYVDGVEVHNAKTKPREEQYNSTYRVVSVLTVLHQDWLNGKEYKCKVSNKALPAPIEKTISKAKGQPREPQVYTKPPSREEMTKNQVSLSCLVKGFYPSDIAVEWESNGQPENNYKTTVPVLDSDGSFRLASYLTVDKSRWQQGNVFSCSVMHEALHNHYTQKSLSLSPGK
3 | 4.07 | 2.67 | 2.31 | 1.46 | 01H11R2LS VHH Mono-Fc (Fc fusion) EVQLVESGGGLVQAGDSLRLSCAASGRTLTTYGMGWFRQAPGKEREFVATIKWSGSTNYKYYADSVKGRFTISRDNAKNTVYLQMNSLKPEDTAVYYCAAGTVLGDPRVLNEYDYWGQGTLVTVSSSPAPELLGGPSVFLFPPKPKDTLMISRTPEVTCVVVDVSHEDPEVKFNWYVDGVEVHNAKTKPREEQYNSTYRVVSVLTVLHQDWLNGKEYKCKVSNKALPAPIEKTISKAKGQPREPQVYTKPPSREEMTKNQVSLSCLVKGFYPSDIAVEWESNGQPENNYKTTVPVLDSDGSFRLASYLTVDKSRWQQGNVFSCSVMHEALHNHYTQKSLSLSPGK
4 | 5.32 | 2.77 | 5.05 | 1.64 | 02E01R3LS VHH Mono-Fc (Fc fusion) QVQLVESGGGLVQAGDSLRLSCAASGRTFTTYGMGWFRQAPGKEREFVTTITWSGSTNYKYYADSVKGRFTISRDNAKNTVYLQMNSLKPDDTAVYYCAASTVLRDPRVPTEYDYWGQGTQVTVSSSPAPELLGGPSVFLFPPKPKDTLMISRTPEVTCVVVDVSHEDPEVKFNWYVDGVEVHNAKTKPREEQYNSTYRVVSVLTVLHQDWLNGKEYKCKVSNKALPAPIEKTISKAKGQPREPQVYTKPPSREEMTKNQVSLSCLVKGFYPSDIAVEWESNGQPENNYKTTVPVLDSDGSFRLASYLTVDKSRWQQGNVFSCSVMHEALHNHYTQKSLSLSPGK
5 | 5.26 | 4.56 | 1.66 | 0.897 | 01H06R3L VHH Mono-Fc (Fc fusion) EVQLVESGGGLVQAGDSLRLSCAASGRTRTTYGMGWFRQAPGKEREFVTTITWSGPTNYKYYADSVKGRFTISRDNAKNTAYLQMNSLKPDDTAVYYCAASTVLTDPRVPTEYDYWGQGTQVTVSSSPAPELLGGPSVFLFPPKPKDTLMISRTPEVTCVVVDVSHEDPEVKFNWYVDGVEVHNAKTKPREEQYNSTYRVVSVLTVLHQDWLNGKEYKCKVSNKALPAPIEKTISKAKGQPREPQVYTKPPSREEMTKNQVSLSCLVKGFYPSDIAVEWESNGQPENNYKTTVPVLDSDGSFRLASYLTVDKSRWQQGNVFSCSVMHEALHNHYTQKSLSLSPGK
6 | 0.681 | 0.301 | 0.353 | 0.234 | 01A09R3L VHH Mono-Fc (Fc fusion) EVQLVESGGGVVQAEDSLRLSCAASGLSFSLSRMGWFRQAPGKEREFVATIEWSGRSTYKYYDDSVKGRFAVSGDNTKNTMNLQMKGLNLEDTGVYYCAANPNNYGDPRTPGAYQYWGQGTQVTVSSSPAPELLGGPSVFLFPPKPKDTLMISRTPEVTCVVVDVSHEDPEVKFNWYVDGVEVHNAKTKPREEQYNSTYRVVSVLTVLHQDWLNGKEYKCKVSNKALPAPIEKTISKAKGQPREPQVYTKPPSREEMTKNQVSLSCLVKGFYPSDIAVEWESNGQPENNYKTTVPVLDSDGSFRLASYLTVDKSRWQQGNVFSCSVMHEALHNHYTQKSLSLSPGK
7 | 7.9 | 13.9 | 116 | 33.3 | 01D05R2LS VHH Mono-Fc (Fc fusion) EVQLVESGGGLVQTGGSLRLSCAASGRTFSPYAMGWFRQAPGKEREFVAAIRWSGATTYKYVGDSVQGRFTISRDAAGNTVYLQMNSVKPEDTAVYYCAADRVPKDISIDPRNPKDWDYWGKGTLVTVSSSPAPELLGGPSVFLFPPKPKDTLMISRTPEVTCVVVDVSHEDPEVKFNWYVDGVEVHNAKTKPREEQYNSTYRVVSVLTVLHQDWLNGKEYKCKVSNKALPAPIEKTISKAKGQPREPQVYTKPPSREEMTKNQVSLSCLVKGFYPSDIAVEWESNGQPENNYKTTVPVLDSDGSFRLASYLTVDKSRWQQGNVFSCSVMHEALHNHYTQKSLSLSPGK
8 | 6.91 | 12.8 | 123 | 18.1 | 01H01R2LS VHH Mono-Fc (Fc fusion) EVQLVESGGGLVQTGGSLRLSCAASGRTFSPYAMGWFRQAPGKEREFVAAIRWSGATTYKYVGGSVQGRFTISRDAAGNTVYLQMNSVKPEDTAVYYCAADRVPKDISIDPRNPKDWDYWGKGTQVTVSSSPAPELLGGPSVFLFPPKPKDTLMISRTPEVTCVVVDVSHEDPEVKFNWYVDGVEVHNAKTKPREEQYNSTYRVVSVLTVLHQDWLNGKEYKCKVSNKALPAPIEKTISKAKGQPREPQVYTKPPSREEMTKNQVSLSCLVKGFYPSDIAVEWESNGQPENNYKTTVPVLDSDGSFRLASYLTVDKSRWQQGNVFSCSVMHEALHNHYTQKSLSLSPGK
9 | 8.46 | 14.8 | 111 | 33.2 | 01B06R2LS VHH Mono-Fc (Fc fusion) QVQLVESGGGLVQTGGSLRLSCAASGRTFSPYAMGWFRQAPGKEREFVAAIRWSGATTYKYVGDSVQGRFTISRDAAGNTVYLQMNSVKPEDTAVYYCAADRVPKDISIDPRNPKDWDYWGKGTLVTVSSSPAPELLGGPSVFLFPPKPKDTLMISRTPEVTCVVVDVSHEDPEVKFNWYVDGVEVHNAKTKPREEQYNSTYRVVSVLTVLHQDWLNGKEYKCKVSNKALPAPIEKTISKAKGQPREPQVYTKPPSREEMTKNQVSLSCLVKGFYPSDIAVEWESNGQPENNYKTTVPVLDSDGSFRLASYLTVDKSRWQQGNVFSCSVMHEALHNHYTQKSLSLSPGK
10 | 61 | 3.95 | 44.3 | 6.19 | 01H08R3 VHH Mono-Fc (Fc fusion) QVQLVESGGGSVQTGGSLRLSCTASGRTFSNYGMGWFRQAPGKEREFVAGITRSGRTTYYYYADAVKGRFTIPRDNADNTIYLQMDSMKPDDTAVYYCAARQGENNYDPRSGSAYNYWGPGTQVTVSSSPAPELLGGPSVFLFPPKPKDTLMISRTPEVTCVVVDVSHEDPEVKFNWYVDGVEVHNAKTKPREEQYNSTYRVVSVLTVLHQDWLNGKEYKCKVSNKALPAPIEKTISKAKGQPREPQVYTKPPSREEMTKNQVSLSCLVKGFYPSDIAVEWESNGQPENNYKTTVPVLDSDGSFRLASYLTVDKSRWQQGNVFSCSVMHEALHNHYTQKSLSLSPGK
